From patent US20230050148A1 (SCHOLAR ROCK, published 2023)

T1: Cyno (cynomolgus monkey)
T1 chain: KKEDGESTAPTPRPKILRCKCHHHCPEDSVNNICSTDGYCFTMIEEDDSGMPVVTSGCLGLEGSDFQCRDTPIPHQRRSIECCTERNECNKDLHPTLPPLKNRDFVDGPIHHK

B1: Ab4 (antibody, V domains shown)
VH: EVQLVESGGGLVQPGGSLRLSCAASGFTFSSYSMNWVRQAPGKGLEWVSYISSSSSTIYYADSVKGRFTISRDNAKNSLYLQMNSLRAEDTAVYYCARGVLDYGDMLDPWGQGTLVTVSS
VL: DIQMTQSPSSLSASVGDRVTITCQASQDITNYLNWYQQKPGKAPKLLIYDASNLETGVPSRFSGSGSGTDFTFTISSLQPEDIATYYCQQADNHPPWTFGGGTKVEIK
B2: Ab5 (antibody, V domains shown)
VH: EVQLVESGGGLVQPGGSLRLSCAASGFTFSSFSMDWVRQAPGKGLEWVSYISPDASTIYYADSVKGRFTISRDNAKNSLYLQMNSLRAEDTAVYYCARGVLDYGDMLDPWGQGTLVTVSS
VL: DIQMTQSPSSLSASVGDRVTITCQASQDITNYLNWYQQKPGKAPKLLIYDASNLETGVPSRFSGSGSGTDFTFTISSLQPEDIATYYCQQADNHPPWTFGGGTKVEIK
B3: Ab6 (antibody, V domains shown)
VH: EVQLVESGGGLVQPGGSLRLSCTASGFTFSSFSMDWVRQAPGKGLEWVSYISPSADTIYYADSVKGRFTISRDNAKNTLYLQMNSLRAEDTAVYYCARGVLDYGDMLMPWGQGTLVTVSS
VL: DIQMTQSPSSLSASVGDRVTITCQASQDITNYLNWYQQKPGKAPKLLIYDASNLETGVPSRFSGSGSGTDFTFTISSLQPEDIATYYCQQADNHPPWTFGGGTKVEIKR
B4: Ab23 (antibody, V domains shown)
VH: EVQLVESGGGLVQPGGSLRLSCAASGFTFSSFSMNWVRQAPGKGLEWVSYISPSADTIYYADSVKGRFTISRDNAKNTLYLQMNSLRAEDTAVYYCARGVLDYGDMLDPWGQGTLVTVSS
VL: DIQMTQSPSSLSASVGDRVTITCQASQDITNYLNWYQQKPGKAPKLLIYDASNLETGVPSRFSGSGSGTDFTFTISSLQPEDIATYYCQQADNHPPWTFGGGTKVEIK
B5: Ab25 (antibody, V domains shown)
VH: EVQLVESGGGLVQPGGSLRLSCAASGFTFGSFSMDWVRQAPGKGLEWVSYISPDASTIYYADSVKGRFTISRDNAKNSLYLQMNSLRAEDTAVYYCARGVLDYGDMLDPWGQGTLVTVSS
VL: DIQMTQSPSSLSASVGDRVTITCQASQDITNYLNWYQQKPGKAPKLLIYDASNLETGVPSRFSGSGSGTDFTFTISSLQPEDIATYYCQQADNHPPWTFGGGTKVEIK
B6: Ab21 (antibody, V domains shown)
VH: EVQLVESGGGLVQPGGSLRLSCAASGFTFSSFSMDWVRQAPGKGLEWVSYISPDASTIYYADSVKGRFTISRDNAKNSLYLQMNSLRAEDTAVYYCARGVLDYGDMLDPWGQGTLVTVSS
VL: DIQMTQSPSSLSASVGDRVTITCQASQDITNYLNWYQQKPGKAPKLLIYDASNLETGVPSRFSGSGSGTDFTFTISSLQPEDIATYYCQQADNHPPWTFGGGTKVEIK
B7: Ab33 (antibody, V domains shown)
VH: EVQLVESGGGLVQPGGSLRLSCAASGFTFSSFSMNWVRQAPGKGLEWVSYISPSADTIYYADSVKGRFTISRDNAKNTLYLQMNSLRAEDTAVYYCAHGVLDYGDMLDPWGQGTLVTVSS
VL: DIQMTQSPSSLSASVGDRVTITCQASQDITNYLNWYQQKPGKAPKLLIYDASNLETGVPSRFSGSGSGTDFTFTISSLQPEDIATYYCQQADNHPPWTFGGGTKVEIK
B8: Ab6 Fab (Fab, V domains shown)
VH: EVQLVESGGGLVQPGGSLRLSCTASGFTFSSFSMDWVRQAPGKGLEWVSYISPSADTIYYADSVKGRFTISRDNAKNTLYLQMNSLRAEDTAVYYCARGVLDYGDMLMPWGQGTLVTVSS
VL: DIQMTQSPSSLSASVGDRVTITCQASQDITNYLNWYQQKPGKAPKLLIYDASNLETGVPSRFSGSGSGTDFTFTISSLQPEDIATYYCQQADNHPPWTFGGGTKVEIK
notes: also called Fab fragment of Ab6
B9: Ab26 (antibody, V domains shown)
VH: EVQLVESGGGLVQPGGSLRLSCAASGFTFSSFSMDWVRQAPGKGLEWVSYISPDASTIYYADSVKGRFTISRDNAKNTLYLQMNSLRAEDTAVYYCARGVLDYGDMLDPWGQGTLVTVSS
VL: DIQMTQSPSSLSASVGDRVTITCQASQDITNYLNWYQQKPGKAPKLLIYDASNLETGVPSRFSGSGSGTDFTFTISSLQPEDIATYYCQQADNHPPWTFGGGTKVEIK
B10: Ab29 (antibody, V domains shown)
VH: EVQLVESGGGLVQPGRSLRLSCAASGFTFSSFAMNWVRQAPGKGLEWVSYISPDASTIYYAGSVKGRFTISRDNAKNSLYLQMNSLRAEDTAVYYCVRAVLDYGDMLDPWGQGTLVTVSS
VL: DIQMTQSPSSLSASVGDRVTITCQASQDITNYLNWYQQKPGKAPKLLIYDASNLETGVPSRFSGSGSGTDFTFTISSLQPEDIATYYCQQADNHPPWTFGGGTKVEIK

Tests used:
[1] = molecular target: hLTBP1-proTGFβ1 in the cell-based potency assay (human, UniProt P01137 30-390; Q14766 347-1721); test: cell-based or functional assay
[2] = molecular target: hLTBP3-proTGFβ1 in the cell-based potency assay (human, UniProt P01137 30-390; Q9NS15 44-1303); test: cell-based or functional assay
[3] = molecular target: hGARP-proTGFβ1 in the cell-based potency assay (human, UniProt P01137 30-390; Q14392 20-662); test: cell-based or functional assay
[4] = molecular target: hLRRC33-proTGFβ1 in the cell-based potency assay (human, UniProt P01137 30-390; Q86YC3 19-651); test: cell-based or functional assay
LTBP:proTGFβ1 = LTBP:proTGFβ1 (human); test: cell-based or functional assay
Human = Human (human); test: cell-based or functional assay
Rat = Rat (rat); test: cell-based or functional assay
Cyno = molecular target: T1, Cyno; test: cell-based or functional assay
[5] = molecular target: T2, recombinant human LTBP1-proTGFβ1 complex (human, UniProt Q14766 873-1507); test: SPR (Biacore 8K), biotinylated antigen on Biotin CAP chip, Fab 0.62-10 nM, 1:1 fit
T2 construct: range 873-1507; Purified large latent complex (proTGFβ1 dimer disulfide-linked to one presenting molecule); biotinylated in BLI, MSD-SET and SPR assays; also called hLTBP1-proTGFβ1; hLTBP1

[6] = molecular target: T3, recombinant human LTBP3-proTGFβ1 complex (human, UniProt Q9NS15 866-1039); test: as above
T3 construct: range 866-1039; Purified large latent complex; also called hLTBP3-proTGFβ1; hLTBP3

[7] = molecular target: T4, recombinant human GARP-proTGFβ1 complex (human, UniProt P01137 30-390; Q14392 20-627); test: as above
T4 construct: C-terminally His-tagged GARP ectodomain (sGARP) in complex with latent TGFβ1; also called hGARP-proTGFβ1; hGARP

[8] = molecular target: T5, recombinant human LRRC33-proTGFβ1 complex (human, UniProt P01137 30-390; Q86YC3 19-650); test: as above
T5 construct: C-terminally His-tagged LRRC33 ectodomain (sLRRC33); also called hLRRC33-proTGFβ1; hLRRC33
T5 sequence (P01137 30-390 limits assumed, chain 1 of 2): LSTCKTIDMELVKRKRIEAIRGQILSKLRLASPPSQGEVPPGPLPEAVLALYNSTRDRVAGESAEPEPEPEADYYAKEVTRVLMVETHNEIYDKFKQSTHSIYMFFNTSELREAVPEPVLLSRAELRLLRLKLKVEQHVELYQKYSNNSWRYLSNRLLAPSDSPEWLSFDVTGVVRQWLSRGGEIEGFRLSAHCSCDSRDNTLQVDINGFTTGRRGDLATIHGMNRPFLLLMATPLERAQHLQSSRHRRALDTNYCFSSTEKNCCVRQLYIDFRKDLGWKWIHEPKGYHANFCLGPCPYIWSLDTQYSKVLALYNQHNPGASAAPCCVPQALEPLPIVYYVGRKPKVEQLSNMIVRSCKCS
T5 sequence (Q86YC3 other isoform, or with tags, fused parts or gaps limits assumed, chain 2 of 2): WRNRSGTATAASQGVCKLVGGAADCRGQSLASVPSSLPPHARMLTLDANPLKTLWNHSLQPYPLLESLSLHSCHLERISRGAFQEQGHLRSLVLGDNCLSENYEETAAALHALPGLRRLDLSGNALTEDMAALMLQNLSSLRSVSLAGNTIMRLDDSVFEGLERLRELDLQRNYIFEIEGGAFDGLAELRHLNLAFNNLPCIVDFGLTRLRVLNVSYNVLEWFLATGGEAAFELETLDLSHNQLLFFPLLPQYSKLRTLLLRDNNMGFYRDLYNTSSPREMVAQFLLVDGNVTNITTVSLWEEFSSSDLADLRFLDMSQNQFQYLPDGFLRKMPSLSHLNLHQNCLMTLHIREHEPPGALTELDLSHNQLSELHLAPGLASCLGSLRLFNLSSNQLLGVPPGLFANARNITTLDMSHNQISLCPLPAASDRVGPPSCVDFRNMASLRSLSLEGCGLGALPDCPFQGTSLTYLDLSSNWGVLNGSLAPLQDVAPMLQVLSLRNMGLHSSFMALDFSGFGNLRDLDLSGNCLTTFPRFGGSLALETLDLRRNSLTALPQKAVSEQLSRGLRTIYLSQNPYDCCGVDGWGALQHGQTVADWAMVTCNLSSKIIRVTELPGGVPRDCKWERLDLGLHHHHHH

Sequence of hLTBP3-proTGFβ1 in the cell-based potency assay (P01137 30-390 limits assumed, chain 1 of 2): as the sequence (P01137 30-390 limits assumed, chain 1 of 2) above
Sequence of hLTBP3-proTGFβ1 in the cell-based potency assay (Q9NS15 44-1303 limits assumed, chain 2 of 2): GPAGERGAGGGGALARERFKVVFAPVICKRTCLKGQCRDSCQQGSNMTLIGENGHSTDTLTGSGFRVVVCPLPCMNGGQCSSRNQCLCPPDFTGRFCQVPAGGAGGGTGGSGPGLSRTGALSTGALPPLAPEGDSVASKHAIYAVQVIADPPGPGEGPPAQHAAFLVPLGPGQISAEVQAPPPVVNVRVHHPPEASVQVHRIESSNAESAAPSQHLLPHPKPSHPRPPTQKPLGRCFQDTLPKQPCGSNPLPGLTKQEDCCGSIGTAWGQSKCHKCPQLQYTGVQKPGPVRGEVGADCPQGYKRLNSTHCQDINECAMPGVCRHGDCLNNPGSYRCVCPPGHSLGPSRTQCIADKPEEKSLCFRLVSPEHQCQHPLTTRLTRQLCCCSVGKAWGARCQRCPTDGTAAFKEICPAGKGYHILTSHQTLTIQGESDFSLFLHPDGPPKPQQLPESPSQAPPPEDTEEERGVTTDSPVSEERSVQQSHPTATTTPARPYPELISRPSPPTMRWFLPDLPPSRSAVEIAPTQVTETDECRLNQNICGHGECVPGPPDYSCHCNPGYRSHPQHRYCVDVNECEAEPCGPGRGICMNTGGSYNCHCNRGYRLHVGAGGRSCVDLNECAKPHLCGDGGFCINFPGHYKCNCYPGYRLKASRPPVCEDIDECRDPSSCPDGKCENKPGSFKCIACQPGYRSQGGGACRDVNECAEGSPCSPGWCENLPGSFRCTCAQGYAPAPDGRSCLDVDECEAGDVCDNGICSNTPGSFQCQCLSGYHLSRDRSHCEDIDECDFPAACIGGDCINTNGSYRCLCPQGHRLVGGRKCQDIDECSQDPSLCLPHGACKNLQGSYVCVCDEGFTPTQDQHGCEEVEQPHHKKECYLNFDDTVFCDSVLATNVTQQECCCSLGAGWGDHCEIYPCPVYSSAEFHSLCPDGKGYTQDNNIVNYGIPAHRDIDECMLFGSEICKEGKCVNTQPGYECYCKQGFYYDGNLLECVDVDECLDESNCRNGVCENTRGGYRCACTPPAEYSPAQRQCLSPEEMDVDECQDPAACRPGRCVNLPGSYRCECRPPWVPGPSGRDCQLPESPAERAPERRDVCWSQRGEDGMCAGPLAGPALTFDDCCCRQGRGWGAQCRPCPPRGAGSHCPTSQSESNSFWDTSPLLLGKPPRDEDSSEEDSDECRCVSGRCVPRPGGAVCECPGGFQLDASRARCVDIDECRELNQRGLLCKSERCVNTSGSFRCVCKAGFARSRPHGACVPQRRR
T2 sequence (chain, as listed by the source limits assumed, chain 1 of 2): as the sequence (P01137 30-390 limits assumed, chain 1 of 2) above
T2 sequence (Q14766 873-1507 limits assumed, chain 2 of 2): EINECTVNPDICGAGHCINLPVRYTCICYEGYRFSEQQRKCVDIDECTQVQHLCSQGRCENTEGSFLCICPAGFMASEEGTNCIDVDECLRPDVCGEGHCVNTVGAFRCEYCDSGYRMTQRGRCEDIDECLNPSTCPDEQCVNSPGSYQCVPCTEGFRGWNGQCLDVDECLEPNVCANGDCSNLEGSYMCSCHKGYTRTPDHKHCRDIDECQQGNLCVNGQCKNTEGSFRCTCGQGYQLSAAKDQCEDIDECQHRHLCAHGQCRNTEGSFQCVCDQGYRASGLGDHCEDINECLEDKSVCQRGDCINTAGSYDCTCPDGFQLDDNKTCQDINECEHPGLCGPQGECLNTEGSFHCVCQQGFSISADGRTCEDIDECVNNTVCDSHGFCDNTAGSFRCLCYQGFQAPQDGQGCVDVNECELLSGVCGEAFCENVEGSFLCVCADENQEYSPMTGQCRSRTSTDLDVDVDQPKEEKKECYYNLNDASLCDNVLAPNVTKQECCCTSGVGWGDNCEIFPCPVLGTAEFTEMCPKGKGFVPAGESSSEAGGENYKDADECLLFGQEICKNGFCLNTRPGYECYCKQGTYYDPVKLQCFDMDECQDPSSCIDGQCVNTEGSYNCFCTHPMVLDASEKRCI
Sequence of hLRRC33-proTGFβ1 in the cell-based potency assay (P01137 30-390 limits assumed, chain 1 of 2): as the sequence (P01137 30-390 limits assumed, chain 1 of 2) above
Sequence of hLRRC33-proTGFβ1 in the cell-based potency assay (Q86YC3 other isoform, or with tags, fused parts or gaps limits assumed, chain 2 of 2): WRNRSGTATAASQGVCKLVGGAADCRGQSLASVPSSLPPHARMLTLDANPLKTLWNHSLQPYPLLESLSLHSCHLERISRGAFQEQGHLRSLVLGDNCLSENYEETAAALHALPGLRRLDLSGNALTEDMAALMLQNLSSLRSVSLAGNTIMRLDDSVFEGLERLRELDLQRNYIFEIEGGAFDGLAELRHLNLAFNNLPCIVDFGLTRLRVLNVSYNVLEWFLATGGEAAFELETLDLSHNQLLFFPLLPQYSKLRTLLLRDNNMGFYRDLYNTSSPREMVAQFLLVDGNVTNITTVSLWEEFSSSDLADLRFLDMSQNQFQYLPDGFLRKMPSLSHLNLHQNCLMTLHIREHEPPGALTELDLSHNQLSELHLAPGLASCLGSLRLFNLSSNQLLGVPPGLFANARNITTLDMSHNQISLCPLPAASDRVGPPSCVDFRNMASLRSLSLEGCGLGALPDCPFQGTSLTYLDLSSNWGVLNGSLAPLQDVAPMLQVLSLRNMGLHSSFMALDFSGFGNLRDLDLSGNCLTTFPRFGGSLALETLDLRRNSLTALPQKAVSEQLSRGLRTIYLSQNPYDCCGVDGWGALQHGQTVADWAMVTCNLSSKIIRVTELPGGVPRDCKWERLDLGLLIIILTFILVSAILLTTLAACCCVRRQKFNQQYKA
Sequence of Rat (rat) (P17246 30-390): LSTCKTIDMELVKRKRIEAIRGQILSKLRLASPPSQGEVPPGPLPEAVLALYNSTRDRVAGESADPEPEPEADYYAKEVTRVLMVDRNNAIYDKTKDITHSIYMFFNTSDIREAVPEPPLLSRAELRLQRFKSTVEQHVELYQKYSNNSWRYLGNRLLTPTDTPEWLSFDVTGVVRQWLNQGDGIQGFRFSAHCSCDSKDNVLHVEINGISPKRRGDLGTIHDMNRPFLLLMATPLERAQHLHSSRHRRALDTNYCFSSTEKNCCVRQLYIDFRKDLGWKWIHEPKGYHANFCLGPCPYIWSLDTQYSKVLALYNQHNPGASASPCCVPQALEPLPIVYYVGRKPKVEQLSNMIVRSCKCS

| Binder | IC50, reporter cell assay of TGFβ1 activation [1] [nM] | IC50, reporter cell assay of TGFβ1 activation [2] [nM] | IC50, reporter cell assay of TGFβ1 activation [3] [nM] | IC50, reporter cell assay of TGFβ1 activation [4] [nM] | other results |
| --- | --- | --- | --- | --- | --- |
| B1 | 5.2 | 5.6 | 0.8 |  |  |
| B2 | 1.3 |  | 0.1 | 0.6 |  |
| B3 |  |  |  |  | IC50 (read off the curve); percent TGFβ activity, LN229 / CAGA12 luciferase reporter co-culture (LTBP:proTGFβ1): ~1 nM; IC50 (inhibition of latent TGFβ1 activation, LN229 transfectants with CAGA12 reporter cells) (Human): 1.07 nM; IC50 (inhibition of latent TGFβ1 activation, LN229 transfectants with CAGA12 reporter cells) (Rat): 1.11 nM; IC50 (inhibition of latent TGFβ1 activation, LN229 transfectants with CAGA12 reporter cells) (Cyno): 1.02 nM |
| B4 | 0.8 | 0.9 | 0.3 | 0.6 |  |
| B5 | 6.1 | 0.51 | 0.4 | 0.7 |  |
| B6 | 1.6 | 0.8 | 0.4 | 0.6 |  |
| B7 | 1.6 | 1.1 | 0.2 | 0.7 |  |
| B8 |  |  |  |  | Kd [5]: 0.124 nM; koff [5]: 0.000255 s⁻¹; kon [5]: 2.05e+06 M⁻¹ s⁻¹; Kd [6]: 0.488 nM; koff [6]: 0.000831 s⁻¹; kon [6]: 1.7e+06 M⁻¹ s⁻¹; Kd [7]: 0.104 nM; koff [7]: 0.000218 s⁻¹; kon [7]: 2.1e+06 M⁻¹ s⁻¹; Kd [8]: 0.145 nM; koff [8]: 0.000123 s⁻¹; kon [8]: 845000 M⁻¹ s⁻¹ |
| B9 | 0.7 | 0.7 | 0.3 | 0.3 |  |
| B10 | 0.5 | 0.8 | 0.3 | 0.5 |  |
